{"source": "paper PMC6993976", "about": "“Insulin BBB pharmacokinetics in young apoE male and female transgenic mice” (PLoS ONE, 2020)", "key": {"[1]": {"system": "blood-brain barrier (BBB)", "parameters": "method as in PMID 30044494", "conditions": "in vivo; cited from earlier work"}, "[2]": {"system": "blood-brain barrier (BBB)", "conditions": "in vivo; cited from earlier work", "excerpt": "Our studies are designed to investigate the transfer of human ^125I-insulin from the periphery to the CNS. Rat and human insulin are transported across the BBB at similar rates and are both saturable by excess respective peptide. […] We used the well-described multiple-time regression analysis technique first described by Patlak, Blasberg, and Fenstermacher. This an ..."}, "[3]": {"parameters": "species or system mouse (human E3- and E4-targeted replacement mice)", "conditions": "in vivo", "description": "Mice were anesthetized with an intraperitoneal injection of 0.1 mL 40% urethane to minimize pain and distress. […] We correct for the exact amount of radioactivity injected based on serum levels. […] Blood from the left carotid artery was collected between 0.5–10 min after intravenous injection. Mice were immediately decapitated and their whole brains quickly removed and weighed. The arterial blood was centrifuged at 5400g for 10 min at 4°C and serum collected. The brains were dissected into regions according to the method of [27] and weighed. The levels of radioactivity in serum (50 μL) and brain regions were counted in a gamma counter (Wizard2, Perkin Elmer, Waltham, MA). […] Expt was calculated from the formula: Exposuretime=∫0tCp(t)dt/Cp(t) (1) where Cp is the level of radioactivity (cpm) in serum at time (t). Expt corrects for the clearance of peptide from the blood. […] The influx of insulin was calculated by multiple-time regression analysis as described by Patlak, Blasberg, and Fenstermacher: Am/Cpt=Ki(∫0tCp(t)dt/Cp(t))+Vi (2) where Am is level of radioactivity (cpm) per g of brain tissue at time t, Cpt is the level of radioactivity (cpm) per mL arterial serum at time t, Ki (μL/g-min) is the unidirectional solute influx from blood to brain, and Vi (μL/g) is the level of rapid and reversible binding for the brain vasculature. […]"}, "[4]": {"system": "blood-brain barrier (BBB)", "assay": "BBB pharmacokinetic transport of 125I-insulin, multiple-time regression analysis (Ki, Vi)", "format": "in vivo, mouse (human E3- and E4-targeted replacement mice)", "conditions": "for Insulin transport rate Ki / Reversible vascular binding (Vi): n = 7-10 mice/group; for Ki (unidirectional influx from blood to brain) / Vi (reversible vascular binding): whole brain; for Ki (unidirectional influx from blood to brain): multiple-time regression, ± SE", "description": "Mice were anesthetized with an intraperitoneal injection of 0.1 mL 40% urethane to minimize pain and distress. […] We correct for the exact amount of radioactivity injected based on serum levels. […] Blood from the left carotid artery was collected between 0.5–10 min after intravenous injection. Mice were immediately decapitated and their whole brains quickly removed and weighed. The arterial blood was centrifuged at 5400g for 10 min at 4°C and serum collected. The brains were dissected into regions according to the method of [27] and weighed. The levels of radioactivity in serum (50 μL) and brain regions were counted in a gamma counter (Wizard2, Perkin Elmer, Waltham, MA). […] Expt was calculated from the formula: Exposuretime=∫0tCp(t)dt/Cp(t) (1) where Cp is the level of radioactivity (cpm) in serum at time (t). Expt corrects for the clearance of peptide from the blood. […] The influx of insulin was calculated by multiple-time regression analysis as described by Patlak, Blasberg, and Fenstermacher: Am/Cpt=Ki(∫0tCp(t)dt/Cp(t))+Vi (2) where Am is level of radioactivity (cpm) per g of brain tissue at time t, Cpt is the level of radioactivity (cpm) per mL arterial serum at time t, Ki (μL/g-min) is the unidirectional solute influx from blood to brain, and Vi (μL/g) is the level of rapid and reversible binding for the brain vasculature. The brain/serum (B/S) ratios for insulin were corrected for vascular space by subtracting the corresponding ratio for albumin, yielding a delta B/S ratio. The linear portion of the relation between the delta B/S ratio versus Expt was used to calculate the Ki (μL/g-min) with its standard error term, and the y-intercept determined as representation of the Vi (μL/g) for each brain region. For whole brain, the weights and cpm of all individual brain regions except for the olfactory bulb were summed to calculate the B/S ratio. […] All anesthetized mice were killed by decapitation at the end of the study.\nRegression analysis and other statistical analyses were performed with the use of Prism 8.0 (GraphPad Software Inc., San Diego, CA, USA). Brain weight means are reported with their standard error terms and compared by two-way analysis of variance (ANOVA) followed by Sidak’s post hoc test to determine differences due to genotype or sex. […] For pharmacokinetic studies (multiple-time regression analysis), the slope of the linear regression lines (Ki), reported with their correlation coefficients (r), and y-intercepts (Vi) were compared statistically with the Prism 8.0 software package, as described."}}, "data": [{"substance": "125I-insulin: Human insulin (Sigma-Aldrich) radioactively labeled with Na125I by the chloramine-T method", "values": [{"measurement": "Distribution between brain capillary and brain parenchyma", "setting": "[1]", "result": "enters the brain parenchyma"}, {"measurement": "Whole brain transport rate, average previously observed", "setting": "[2]", "result": "0.71 ± 0.17", "unit": "µL/g/min"}, {"measurement": "Serum clearance rate, slower in males compared to females", "setting": "[3]", "result": "> 2", "unit": "fold"}, {"measurement": "Insulin transport rate Ki", "setting": "[4]; E3 Female, Cerebellum", "result": 1.189, "unit": "µL/g/min"}, {"measurement": "Reversible vascular binding (Vi)", "setting": "[4]; E3 Female, Cerebellum", "result": 8.36, "unit": "µL/g"}, {"measurement": "Insulin transport rate Ki", "setting": "[4]; E3 Female, Frontal Cortex", "result": 0.796, "unit": "µL/g/min"}, {"measurement": "Reversible vascular binding (Vi)", "setting": "[4]; E3 Female, Frontal Cortex", "result": 4.65, "unit": "µL/g"}, {"measurement": "Insulin transport rate Ki", "setting": "[4]; E3 Female, Hippocampus, ns = non-significant transport", "result": "ns"}, {"measurement": "Insulin transport rate Ki", "setting": "[4]; E3 Female, Hypothalamus", "result": 1.541, "unit": "µL/g/min"}, {"measurement": "Reversible vascular binding (Vi)", "setting": "[4]; E3 Male, Parietal Cortex", "result": 4.17, "unit": "µL/g"}, {"measurement": "Insulin transport rate Ki", "setting": "[4]; E3 Male, Pons/Medulla", "result": 0.739, "unit": "µL/g/min"}, {"measurement": "Insulin transport rate Ki", "setting": "[4]; E3 Male, Striatum, ns = non-significant transport", "result": "ns"}, {"measurement": "Insulin transport rate Ki", "setting": "[4]; E3 Male, Thalamus, ns = non-significant transport", "result": "ns"}, {"measurement": "Insulin transport rate Ki", "setting": "[4]; E4 Female, Cerebellum", "result": 2.110, "unit": "µL/g/min"}, {"measurement": "Reversible vascular binding (Vi)", "setting": "[4]; E4 Female, Cerebellum", "result": 8.91, "unit": "µL/g"}, {"measurement": "Insulin transport rate Ki", "setting": "[4]; E4 Female, Frontal Cortex", "result": 0.720, "unit": "µL/g/min"}, {"measurement": "Reversible vascular binding (Vi)", "setting": "[4]; E4 Female, Olfactory Bulb", "result": 11.71, "unit": "µL/g"}, {"measurement": "Insulin transport rate Ki", "setting": "[4]; E4 Female, Parietal Cortex", "result": 0.859, "unit": "µL/g/min"}, {"measurement": "Reversible vascular binding (Vi)", "setting": "[4]; E4 Female, Parietal Cortex", "result": 3.31, "unit": "µL/g"}, {"measurement": "Insulin transport rate Ki", "setting": "[4]; E4 Female, Pons/Medulla", "result": 1.111, "unit": "µL/g/min"}, {"measurement": "Insulin transport rate Ki", "setting": "[4]; E4 Female, Striatum, ns = non-significant transport", "result": "ns"}, {"measurement": "Insulin transport rate Ki", "setting": "[4]; E4 Female, Thalamus", "result": 0.634, "unit": "µL/g/min"}, {"measurement": "Insulin transport rate Ki", "setting": "[4]; E4 Male, Cerebellum, ns = non-significant transport", "result": "ns"}, {"measurement": "Insulin transport rate Ki", "setting": "[4]; E4 Male, Frontal Cortex", "result": 1.023, "unit": "µL/g/min"}, {"measurement": "Reversible vascular binding (Vi)", "setting": "[4]; E4 Male, Frontal Cortex", "result": 5.90, "unit": "µL/g"}, {"measurement": "Insulin transport rate Ki", "setting": "[4]; E4 Male, Hippocampus, ns = non-significant transport", "result": "ns"}, {"measurement": "Insulin transport rate Ki", "setting": "[4]; E4 Male, Hypothalamus", "result": 2.272, "unit": "µL/g/min"}, {"measurement": "Reversible vascular binding (Vi)", "setting": "[4]; E4 Male, Hypothalamus", "result": 5.63, "unit": "µL/g"}, {"measurement": "Insulin transport rate Ki", "setting": "[4]; E4 Male, Midbrain", "result": 0.887, "unit": "µL/g/min"}, {"measurement": "Reversible vascular binding (Vi)", "setting": "[4]; E4 Male, Midbrain", "result": 6.38, "unit": "µL/g"}, {"measurement": "Insulin transport rate Ki", "setting": "[4]; E4 Male, Occipital Cortex", "result": 0.793, "unit": "µL/g/min"}, {"measurement": "Reversible vascular binding (Vi)", "setting": "[4]; E4 Male, Occipital Cortex", "result": 6.71, "unit": "µL/g"}, {"measurement": "Insulin transport rate Ki", "setting": "[4]; E4 Male, Olfactory Bulb", "result": 1.712, "unit": "µL/g/min"}, {"measurement": "Reversible vascular binding (Vi)", "setting": "[4]; E4 Male, Olfactory Bulb", "result": 13.31, "unit": "µL/g"}, {"measurement": "Insulin transport rate Ki", "setting": "[4]; E4 Male, Parietal Cortex", "result": 0.920, "unit": "µL/g/min"}, {"measurement": "Reversible vascular binding (Vi)", "setting": "[4]; E4 Male, Parietal Cortex", "result": 4.74, "unit": "µL/g"}, {"measurement": "Insulin transport rate Ki", "setting": "[4]; E4 Male, Pons/Medulla, ns = non-significant transport", "result": "ns"}, {"measurement": "Insulin transport rate Ki", "setting": "[4]; E4 Male, Striatum, ns = non-significant transport", "result": "ns"}, {"measurement": "Insulin transport rate Ki", "setting": "[4]; E4 Male, Thalamus", "result": 1.203, "unit": "µL/g/min"}, {"measurement": "Reversible vascular binding (Vi)", "setting": "[4]; E4 Male, Thalamus", "result": 4.56, "unit": "µL/g"}, {"measurement": "Ki (unidirectional influx from blood to brain)", "setting": "[4]; Female E3, iv, albumin-corrected", "result": "1.128 ± 0.32", "unit": "µL/g/min"}, {"measurement": "Vi (reversible vascular binding)", "setting": "[4]; Female E3, y-intercept of multiple-time regression", "result": "4.41 ± 2.31", "unit": "µL/g"}, {"measurement": "Ki (unidirectional influx from blood to brain)", "setting": "[4]; Female E4", "result": "1.033 ± 0.28", "unit": "µL/g/min"}, {"measurement": "Vi (reversible vascular binding)", "setting": "[4]; Female E4, y-intercept of multiple-time regression", "result": "7.17 ± 2.07", "unit": "µL/g"}, {"measurement": "Vi (reversible vascular binding)", "setting": "[4]; Female, genotypes Combined", "result": "7.84 ± 1.26", "unit": "µL/g"}, {"measurement": "Ki (unidirectional influx from blood to brain)", "setting": "[4]; Female, genotypes Combined", "result": "0.691 ± 0.16", "unit": "µL/g/min"}, {"measurement": "Vi (reversible vascular binding)", "setting": "[4]; Male E3, y-intercept of multiple-time regression", "result": "7.17 ± 0.95", "unit": "µL/g"}, {"measurement": "Ki (unidirectional influx from blood to brain)", "setting": "[4]; Male E4", "result": "0.781 ± 0.32", "unit": "µL/g/min"}, {"measurement": "Vi (reversible vascular binding)", "setting": "[4]; Male E4, y-intercept of multiple-time regression", "result": "8.23 ± 2.13", "unit": "µL/g"}, {"measurement": "Vi (reversible vascular binding)", "setting": "[4]; Male, genotypes Combined", "result": "7.88 ± 1.09", "unit": "µL/g"}, {"measurement": "Ki (unidirectional influx from blood to brain)", "setting": "[4]; Male, genotypes Combined", "result": "0.803 ± 0.17", "unit": "µL/g/min"}]}]}
